In the Human Domainome abundance scans (Beltran et al. 2025):
± gives the uncertainty stated by the source.

B1: Calcium-binding protein 2, residues 155 to 219; numbered along this chain, Q9NPB3 (parent)
chain: RELRDAFREFDTNGDGRISVGELRAALKALLGERLSQREVDEILQDVDLNGDGLVDFEEFVRMMS

Variants of: B1
Assay: abundance fitness (aPCA) (normalised: wild type 0, dead -1); higher = more abundant; growth selection in yeast, the domain comes from the species named
Conditions: Homo sapiens

Row | Variant | abundance fitness
1 | RELRDAFREFDTNGDGRISVGELRAALKALLGERLSEREVDEILQDVDLNGDGLVDFEEFVRMMS [Q37E] | 0.06 ± 0.098
2 | RELRDAFREADTNGDGRISVGELRAALKALLGERLSQREVDEILQDVDLNGDGLVDFEEFVRMMS [F10A] | 0.11 ± 0.071
3 | RELRDAFREFDTNGDGKISVGELRAALKALLGERLSQREVDEILQDVDLNGDGLVDFEEFVRMMS [R17K] | 0.017 ± 0.11
4 | RELRDDFREFDTNGDGRISVGELRAALKALLGERLSQREVDEILQDVDLNGDGLVDFEEFVRMMS [A6D] | -0.709 ± 0.2
5 | RELRDAFREFDTNGDGRISVGELRAALKALLGERLQQREVDEILQDVDLNGDGLVDFEEFVRMMS [S36Q] | 0.047 ± 0.1
6 | RELRDAFREFDTNGDGRISVGELRAALKALLGERLSQREVDEILQDVDLNGQGLVDFEEFVRMMS [D52Q] | -0.121 ± 0.11
7 | RELRDAFREFDTNGDGRISVGELRAALKALLGERLSQREVDEILQLVDLNGDGLVDFEEFVRMMS [D46L] | -0.326 ± 0.1
8 | RELRDAFREFDTNGDGRISVGELRAALKALLGERLSQREVDRILQDVDLNGDGLVDFEEFVRMMS [E42R] | -0.08 ± 0.089
9 | RELRDAFREFDTNGDGRISVGELRAALKALLGERLSQREVDYILQDVDLNGDGLVDFEEFVRMMS [E42Y] | -0.309 ± 0.29
10 | RELRDAFREFDTNGDGRISVGELRAALKALLGDRLSQREVDEILQDVDLNGDGLVDFEEFVRMMS [E33D] | 0.074 ± 0.092
11 | RELRDAFREFDTNGDGRISVGELRAALKALLGERLSQREVDEILQDVDLNYDGLVDFEEFVRMMS [G51Y] | -0.107 ± 0.19
12 | RELTDAFREFDTNGDGRISVGELRAALKALLGERLSQREVDEILQDVDLNGDGLVDFEEFVRMMS [R4T] | -0.138 ± 0.097
13 | RELRDAFREFDTNGDGRISVGELRAALKALLGERLSQREVDEILQDVDLNGDGLVDFEEIVRMMS [F60I] | 0.116 ± 0.34
14 | RELRDAFREFDTNGDGRISVGELRAALKALLGERLSQREVDEILQDVDLNGDGLVDFEEVVRMMS [F60V] | -0.278 ± 0.11
15 | RELRDAFREFDTNGDGRISVGELRAALKALLGERLSQREVDEILQDVDLNGDGLVDFEELVRMMS [F60L] | -0.228 ± 0.082
16 | RELRDAFREFDTNGDGRISVGELRAALKALLGERLSQREVDEILQDVDLNGDGLVDFEEPVRMMS [F60P] | -0.896 ± 0.11
17 | RELRDAFREFDTNWDGRISVGELRAALKALLGERLSQREVDEILQDVDLNGDGLVDFEEFVRMMS [G14W] | -0.718 ± 0.081
18 | RELRDAFREFDTNGDGRISVGELRAALKANLGERLSQREVDEILQDVDLNGDGLVDFEEFVRMMS [L30N] | 0.151 ± 0.1
19 | RELRDAFREFDTNGDGRISVGELRAAYKALLGERLSQREVDEILQDVDLNGDGLVDFEEFVRMMS [L27Y] | -0.136 ± 0.28
20 | RELRDAFREFDTNGDGRISVGELRAAWKALLGERLSQREVDEILQDVDLNGDGLVDFEEFVRMMS [L27W] | -0.137 ± 0.094

Row | Variant | abundance fitness
21 | RELRDAFREFDTNGDGRISVGELRAALKALLGERLSQREVDEILQDVDLNGDGLVDFSEFVRMMS [E58S] | -0.019 ± 0.077
22 | RELRDAFREFDTNGDGRISVGELRAALKALLGERLSQREVDEILQDVDLNGDGLVDFEEFVRVMS [M63V] | 0.047 ± 0.081
23 | RELRDAFNEFDTNGDGRISVGELRAALKALLGERLSQREVDEILQDVDLNGDGLVDFEEFVRMMS [R8N] | -0.023 ± 0.19
24 | RELRDAFSEFDTNGDGRISVGELRAALKALLGERLSQREVDEILQDVDLNGDGLVDFEEFVRMMS [R8S] | 0.01 ± 0.084
25 | RELRDAFREFDTNGDGRISVGELRAALKALLGERLSQREVDEILQDVDLNGDGLTDFEEFVRMMS [V55T] | -0.038 ± 0.055
26 | RELRDAFRWFDTNGDGRISVGELRAALKALLGERLSQREVDEILQDVDLNGDGLVDFEEFVRMMS [E9W] | -0.416 ± 0.069
27 | RELRDAFREFDTNGDGRISVGETRAALKALLGERLSQREVDEILQDVDLNGDGLVDFEEFVRMMS [L23T] | -0.023 ± 0.14
28 | RELRDAFREFDTNGDGRISVGELRATLKALLGERLSQREVDEILQDVDLNGDGLVDFEEFVRMMS [A26T] | -0.268 ± 0.091
29 | RELRDAFREFDTNGDGRISVGELRAALKALLGERLSQREVDEILQDVDLNGDGLVFFEEFVRMMS [D56F] | -0.862 ± 0.26
30 | RELRDAFREFDTNGDGRISVGELRAALKALLGERLSQREVDEILQDWDLNGDGLVDFEEFVRMMS [V47W] | -0.199 ± 0.072
31 | RELRDAFREFDTNGDGRISVPELRAALKALLGERLSQREVDEILQDVDLNGDGLVDFEEFVRMMS [G21P] | 0.044 ± 0.052
32 | RELRDAFREFDTNGDGRISVGELRAALKALLGERKSQREVDEILQDVDLNGDGLVDFEEFVRMMS [L35K] | 0.244 ± 0.17
33 | RELRDAFREFDTNGDGRISVGELRAALKALLGERCSQREVDEILQDVDLNGDGLVDFEEFVRMMS [L35C] | -0.113 ± 0.18
34 | RELRDAFREFDTNGDGRISVGELRAALDALLGERLSQREVDEILQDVDLNGDGLVDFEEFVRMMS [K28D] | 0.068 ± 0.26
35 | RHLRDAFREFDTNGDGRISVGELRAALKALLGERLSQREVDEILQDVDLNGDGLVDFEEFVRMMS [E2H] | -0.086 ± 0.13
36 | RCLRDAFREFDTNGDGRISVGELRAALKALLGERLSQREVDEILQDVDLNGDGLVDFEEFVRMMS [E2C] | -0.472 ± 0.19
37 | RELRDAFREFDTNGDWRISVGELRAALKALLGERLSQREVDEILQDVDLNGDGLVDFEEFVRMMS [G16W] | -0.454 ± 0.091
38 | RELRDAFREFDTNGDHRISVGELRAALKALLGERLSQREVDEILQDVDLNGDGLVDFEEFVRMMS [G16H] | -0.897 ± 0.39
39 | RELRDAFREFDTNGDGRISVGELRAALKALLGERLSQREVDEILQDVDLNGDGLVDFEEFVNMMS [R62N] | -0.111 ± 0.4
40 | RELRDAFREFDTNGDGRISVGELRAALKALLGERLSQREVDEILQDVDLNGDGLVDFELFVRMMS [E59L] | 0.071 ± 0.055

Row | Variant | abundance fitness
41 | RELRDAFREFDTNGDGRISVGELRQALKALLGERLSQREVDEILQDVDLNGDGLVDFEEFVRMMS [A25Q] | -0.068 ± 0.15
42 | RELRDAFREFDTNGDGRISVGELRWALKALLGERLSQREVDEILQDVDLNGDGLVDFEEFVRMMS [A25W] | -0.189 ± 0.075
43 | RELRDAFREFDTNGDGRISVGELRAALKALLGERLSQREVDEILQDVDLNGDMLVDFEEFVRMMS [G53M] | -0.141 ± 0.09
44 | RELRDAFREFDTNGDGRISVGELRAALKALLGERLSQREVDEILQDVDLNGDYLVDFEEFVRMMS [G53Y] | -0.012 ± 0.25
45 | RELRDAFREFDTNGDGRISVGNLRAALKALLGERLSQREVDEILQDVDLNGDGLVDFEEFVRMMS [E22N] | -0.726 ± 0.35
46 | RELRDAFREFDTNGDGRISVGCLRAALKALLGERLSQREVDEILQDVDLNGDGLVDFEEFVRMMS [E22C] | -0.469 ± 0.23
47 | RELRDAFREFDTNGDGRISVGELRAALKALLGERLSQREVDEIGQDVDLNGDGLVDFEEFVRMMS [L44G] | -0.01 ± 0.071
48 | RELRDAFREFDTNGDGRISNGELRAALKALLGERLSQREVDEILQDVDLNGDGLVDFEEFVRMMS [V20N] | 0.081 ± 0.3
49 | RELRDAFREFDTNGDGRISVGELRAALKALLGERLSQREVDEILQDVDLNGDGTVDFEEFVRMMS [L54T] | 0.012 ± 0.096
50 | RELRDAFREFDTNGDGRISVGELRAALKALLGERLSQREVDEILQDVDLNGDGGVDFEEFVRMMS [L54G] | 0.099 ± 0.053
51 | RELRDAFREFDTNGDGRISVGELRAALKALLMERLSQREVDEILQDVDLNGDGLVDFEEFVRMMS [G32M] | -0.567 ± 0.12
52 | RELRDAFREFDTNGDGRISVGELRAALKALLTERLSQREVDEILQDVDLNGDGLVDFEEFVRMMS [G32T] | -0.526 ± 0.15
53 | RENRDAFREFDTNGDGRISVGELRAALKALLGERLSQREVDEILQDVDLNGDGLVDFEEFVRMMS [L3N] | -0.345 ± 0.16
54 | REDRDAFREFDTNGDGRISVGELRAALKALLGERLSQREVDEILQDVDLNGDGLVDFEEFVRMMS [L3D] | -0.497 ± 0.17
55 | RECRDAFREFDTNGDGRISVGELRAALKALLGERLSQREVDEILQDVDLNGDGLVDFEEFVRMMS [L3C] | -1 ± 0.25
56 | RELRDAFREFDTNGDGRISVGELRAALKALLGERLSQREVDEILQDVDLPGDGLVDFEEFVRMMS [N50P] | -0.2 ± 0.062
57 | RELRDAFREFDTNGDGRISVGELRAALKALLGERLSQREVDEILQDVDLVGDGLVDFEEFVRMMS [N50V] | -0.254 ± 0.061
58 | RELRDAFREFDTNGDGRISVGELRAALKALLGERLSQREVDEQLQDVDLNGDGLVDFEEFVRMMS [I43Q] | 0.099 ± 0.11
59 | RELRDAFREFDTNGDGRISVGELRAALKALLGERLSQREVDEPLQDVDLNGDGLVDFEEFVRMMS [I43P] | -0.032 ± 0.12
60 | RELRDAFREFDTNGDGRISVGELRAALKALDGERLSQREVDEILQDVDLNGDGLVDFEEFVRMMS [L31D] | -0.164 ± 0.19
